Laboratory results reported in publication PMC11065761.
Read-outs that look alike come from different tables or passages of the source.

Tests used:
Assay in all cases: SPR
C3b [1] = target: C3b
[2] = target: C4b biotinylated at the free sulfhydryl group of the thioester moiety
C3b [3] = target: C3b; remark: listed apart in the source
C3d = C3d (UniProt P01024)
C4b (amine coupled) = target: C4b (amine coupled)

Full-length factor H (FH), sequence (P08603 19-1231): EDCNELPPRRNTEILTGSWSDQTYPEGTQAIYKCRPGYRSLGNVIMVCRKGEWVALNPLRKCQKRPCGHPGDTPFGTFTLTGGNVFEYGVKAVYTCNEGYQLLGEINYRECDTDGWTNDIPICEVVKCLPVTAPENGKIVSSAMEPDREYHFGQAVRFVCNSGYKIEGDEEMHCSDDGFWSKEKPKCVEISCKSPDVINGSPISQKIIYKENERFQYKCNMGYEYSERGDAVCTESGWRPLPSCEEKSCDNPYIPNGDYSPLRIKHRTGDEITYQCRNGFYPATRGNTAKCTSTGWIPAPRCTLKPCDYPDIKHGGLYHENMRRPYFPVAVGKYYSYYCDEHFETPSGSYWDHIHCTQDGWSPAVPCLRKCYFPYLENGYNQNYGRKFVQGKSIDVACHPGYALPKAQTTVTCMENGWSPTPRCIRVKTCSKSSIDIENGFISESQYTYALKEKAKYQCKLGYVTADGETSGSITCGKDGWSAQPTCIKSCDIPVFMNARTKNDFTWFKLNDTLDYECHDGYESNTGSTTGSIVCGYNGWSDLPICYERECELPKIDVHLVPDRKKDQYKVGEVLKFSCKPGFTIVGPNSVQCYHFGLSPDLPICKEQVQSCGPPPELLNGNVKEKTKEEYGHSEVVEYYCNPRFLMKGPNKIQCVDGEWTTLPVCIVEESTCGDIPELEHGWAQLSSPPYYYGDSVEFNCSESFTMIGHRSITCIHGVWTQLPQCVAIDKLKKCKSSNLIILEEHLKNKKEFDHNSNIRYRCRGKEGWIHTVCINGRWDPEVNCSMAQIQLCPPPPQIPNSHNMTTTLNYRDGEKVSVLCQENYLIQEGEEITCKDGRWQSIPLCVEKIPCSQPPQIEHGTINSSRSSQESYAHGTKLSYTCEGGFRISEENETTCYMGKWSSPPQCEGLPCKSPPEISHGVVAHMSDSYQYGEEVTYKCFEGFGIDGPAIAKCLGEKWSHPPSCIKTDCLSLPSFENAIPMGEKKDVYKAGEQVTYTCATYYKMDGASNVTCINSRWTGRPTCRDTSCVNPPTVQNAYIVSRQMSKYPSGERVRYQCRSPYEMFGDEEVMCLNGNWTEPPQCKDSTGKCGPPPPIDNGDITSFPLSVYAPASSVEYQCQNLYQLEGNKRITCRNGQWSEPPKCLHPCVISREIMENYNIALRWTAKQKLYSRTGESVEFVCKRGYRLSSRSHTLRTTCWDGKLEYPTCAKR
C3d, sequence (P01024 1002-1303): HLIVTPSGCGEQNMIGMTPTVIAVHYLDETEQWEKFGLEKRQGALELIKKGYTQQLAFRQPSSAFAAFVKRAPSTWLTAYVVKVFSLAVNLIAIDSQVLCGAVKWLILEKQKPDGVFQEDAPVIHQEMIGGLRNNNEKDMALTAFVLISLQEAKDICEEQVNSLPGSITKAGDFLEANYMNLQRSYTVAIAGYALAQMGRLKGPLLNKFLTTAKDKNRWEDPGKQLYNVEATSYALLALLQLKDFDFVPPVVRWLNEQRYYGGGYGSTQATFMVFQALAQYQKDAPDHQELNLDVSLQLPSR

Substance | Kd (C3b [1]) [nM] | Kd [2] [nM] | Kd (C3b [3]) [nM] | Kd (C3d) [nM] | Kd (C4b (amine coupled)) [nM]
CR1(15–17), the middle CCP domains 15 to 17 of complement receptor 1 (domain or fragment) | 900 | 7800 | – | – | –
DAF(1–4), the first four CCP domains of decay accelerating factor (domain or fragment) | 11000 | 17600 | – | – | –
DAF(1–4)FH(19–20)-LL (long linker, polyglycine linker of 13 residues) | 175 | – | – | – | –
DAF(1–4)FH(19–20)-SL (short linker, "GPGG") | 125 | – | – | – | –
FH(19–20), the two C-terminal CCP domains of factor H (domain or fragment) | 4700 | – | – | – | –
Full-length factor H (FH) (from UniProt P08603 19-1231) (natural protein) | – | – | 802 | – | –
TriFu_6G (triple fusion complement inhibitor, 6 glycine residues between DAF and FH) | 50 | 643 | 59 | 22000 | 865
TriFu_13G (triple fusion complement inhibitor, 13 glycine residues between DAF and FH) | – | – | 25 | – | –
